The target in assay [1] is T1, cynomolgus CD73 on cells (cynomolgus).
T1 construct: whole, on cells; also called native CD73 on MK-1 cells (cynomolgus)
Description: flow cytometry on MK-1 cells, IgG1-TM. On the technique in general: Flow cytometry measures light scatter and fluorescence of single cells or particles in a stream.
Description: All flow cytometry experiments were run at 4 C and reagents were prepared in PBS/1% FBS buffer. 10,000 cells were incubated with test antibody in 50 uL volume for 4 hours. Cells were washed twice and incubated in 50 uL goat anti-human IgGFc-AlexaFluor647 conjugate for 15 minutes. Cells were washed, resuspended in buffer supplemented with Dapi, and analyzed on a flow cytometer. Dead cells, identified by high Dapi staining, were excluded from the analysis. For the determination of KD values, a plot of the median fluorescence intensity as a function of test antibody concentration was fitted nonlinearly using a one site binding isotherm model.

In assay [2] the target is T2, cynomolgus CD73 extracellular domain (ECD) (cynomolgus).
T2 construct: extracellular domain; also called Cynomolgus CD73 ECD; cyno CD73 (SPR Proteon)
Briefly: SPR ProteOn, antibody captured by anti-human Fc, CD73 ECD in mobile phase, 1:1 model.

Assay [3] concerns the target T3, human CD73 N185G (human, UniProt P21589 27-553, N185G).
T3 sequence: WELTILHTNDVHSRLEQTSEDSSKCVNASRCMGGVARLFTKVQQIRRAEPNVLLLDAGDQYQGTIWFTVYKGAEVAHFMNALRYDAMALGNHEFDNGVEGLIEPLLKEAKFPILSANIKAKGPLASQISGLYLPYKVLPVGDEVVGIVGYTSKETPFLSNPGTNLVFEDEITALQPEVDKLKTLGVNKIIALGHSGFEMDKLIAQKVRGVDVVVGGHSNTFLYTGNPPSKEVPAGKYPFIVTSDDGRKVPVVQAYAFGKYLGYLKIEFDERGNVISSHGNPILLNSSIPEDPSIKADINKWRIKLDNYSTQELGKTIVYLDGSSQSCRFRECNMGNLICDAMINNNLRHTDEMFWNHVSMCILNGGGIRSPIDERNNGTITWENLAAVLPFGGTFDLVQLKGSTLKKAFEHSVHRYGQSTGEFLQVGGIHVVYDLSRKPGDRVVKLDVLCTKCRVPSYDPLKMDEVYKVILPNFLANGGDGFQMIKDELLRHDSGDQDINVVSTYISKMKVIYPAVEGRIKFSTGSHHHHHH
Description: SPR ProteOn, His-tagged CD73 variant on HTG chip, 2:1 fit.

B1: MEDI9447 (antibody, V domains shown)
VH: EVQLLESGGGLVQPGGSLRLSCAASGFTFSSYAYSWVRQAPGKGLEWVSAISGSGGRTYYADSVKGRFTISRDNSKNTLYLQMNSLRAEDTAVYYCARLGYGRVDEWGRGTLVTVSS
VL: QSVLTQPPSASGTPGQRVTISCSGSLSNIGRNPVNWYQQLPGTAPKLLIYLDNLRLSGVPDRFSGSKSGTSASLAISGLQSEDEADYYCATWDDSHPGWTFGGGTKLTVL
notes: also called clone 10.3 antibody; 73combo3
By Kd is commonly meant the constant that tells how readily two partners part at equilibrium. Lower therefore signals a tighter complex. Broadly, the koff is a measure of how fast the partners let go of each other. Low values mean a long-lived complex, high ones a short-lived complex. The term kon denotes the rate constant with which the complex forms. Low readings indicate slow association, high ones fast association. For B1, in assay [1], the affinity, expressed as Kd, was 0.084 nM. In assay [2], this molecule showed a Kd of 0.0065 nM, an off-rate (koff) of 1.76e-05 s⁻¹ and a kon of 2.71e+06 M⁻¹ s⁻¹. In assay [3], this molecule returned a koff of 0.000245 s⁻¹ and a kon of 9.11e+06 M⁻¹ s⁻¹.

(Values after US20160194407A1 (AstraZeneca / MedImmune, published 2016).)
